{"source": "patent US20220040297A1", "about": "(Chugai, published 2022)", "binders": {"B1": {"name": "CE115HA000 G100bS (antibody, name in Kabat numbering, V domains shown)", "VH": "QVQLVESGGGVVQPGRSLRLSCAASGFTFSNAWMHWVRQAPGKGLEWVAQIKAKSNNYATYYAESVKGRFTISRDDSKNSLYLQMNSLKTEDTAVYYCRYVHYGAYYSVDAWGQGTTVTVSS", "VL": "DIVMTQSPLSLPVTPGEPASISCRSSQSLVHSNRNTYLHWYQQKPGQAPRLLIYKVSNRFSGVPDRFSGSGSGTDFTLKISRVEAEDVGVYYCGQGTQVPYTFGQGTKLEIK"}, "B2": {"name": "CE115HA000 K52N (antibody, name in Kabat numbering, V domains shown)", "VH": "B1 VH with K52N, S108G", "VL": "B1 VL"}, "B3": {"name": "CE115HA000 K52E (antibody, name in Kabat numbering, V domains shown)", "VH": "B1 VH with K52E, S108G", "VL": "B1 VL"}, "B4": {"name": "CE115HA000 K43E (antibody, name in Kabat numbering, V domains shown)", "VH": "B1 VH with K43E, S108G", "VL": "B1 VL"}, "B5": {"name": "CE115HA000 I51E (antibody, name in Kabat numbering, V domains shown)", "VH": "B1 VH with I51E, S108G", "VL": "B1 VL"}, "B6": {"name": "CE115HA000 H35V (antibody, name in Kabat numbering, V domains shown)", "VH": "B1 VH with H35V, S108G", "VL": "B1 VL"}, "B7": {"name": "CE115HA000 K52bS (antibody, name in Kabat numbering, V domains shown)", "VH": "B1 VH with K54S, S108G", "VL": "B1 VL"}, "B8": {"name": "CE115HA000 K52H (antibody, name in Kabat numbering, V domains shown)", "VH": "B1 VH with K52H, S108G", "VL": "B1 VL"}, "B9": {"name": "CE115HA000 H35I (antibody, name in Kabat numbering, V domains shown)", "VH": "B1 VH with H35I, S108G", "VL": "B1 VL"}, "B10": {"name": "CE115HA000 K52bQ (antibody, name in Kabat numbering, V domains shown)", "VH": "B1 VH with K54Q, S108G", "VL": "B1 VL"}, "B11": {"name": "CE115HA000 H35W (antibody, name in Kabat numbering, V domains shown)", "VH": "B1 VH with H35W, S108G", "VL": "B1 VL"}, "B12": {"name": "CE115HA000 H35S (antibody, name in Kabat numbering, V domains shown)", "VH": "B1 VH with H35S, S108G", "VL": "B1 VL"}, "B13": {"name": "CE115HA000 K43Q (antibody, name in Kabat numbering, V domains shown)", "VH": "B1 VH with K43Q, S108G", "VL": "B1 VL"}, "B14": {"name": "CE115HA000 K52bR (antibody, name in Kabat numbering, V domains shown)", "VH": "B1 VH with K54R, S108G", "VL": "B1 VL"}, "B15": {"name": "CE115HA000 K52F (antibody, name in Kabat numbering, V domains shown)", "VH": "B1 VH with K52F, S108G", "VL": "B1 VL"}, "B16": {"name": "CE115HA000 K52bY (antibody, name in Kabat numbering, V domains shown)", "VH": "B1 VH with K54Y, S108G", "VL": "B1 VL"}, "B17": {"name": "CE115HA000 H96P (antibody, name in Kabat numbering, V domains shown)", "VH": "B1 VH with H102P, S108G", "VL": "B1 VL"}, "B18": {"name": "CE115HA000 G100bY (antibody, name in Kabat numbering, V domains shown)", "VH": "B1 VH with S108Y", "VL": "B1 VL"}, "B19": {"name": "CE115HA000 K52D (antibody, name in Kabat numbering, V domains shown)", "VH": "B1 VH with K52D, S108G", "VL": "B1 VL"}, "B20": {"name": "CE115HA000 K52bL (antibody, name in Kabat numbering, V domains shown)", "VH": "B1 VH with K54L, S108G", "VL": "B1 VL"}, "B21": {"name": "CE115HA000 K52Y (antibody, name in Kabat numbering, V domains shown)", "VH": "B1 VH with K52Y, S108G", "VL": "B1 VL"}, "B22": {"name": "CE115HA000 H96Y (antibody, name in Kabat numbering, V domains shown)", "VH": "B1 VH with H102Y, S108G", "VL": "B1 VL"}, "B23": {"name": "CE115HA000 H35G (antibody, name in Kabat numbering, V domains shown)", "VH": "B1 VH with H35G, S108G", "VL": "B1 VL"}, "B24": {"name": "CE115HA000 H96Q (antibody, name in Kabat numbering, V domains shown)", "VH": "B1 VH with H102Q, S108G", "VL": "B1 VL"}, "B25": {"name": "CE115HA000 H35N (antibody, name in Kabat numbering, V domains shown)", "VH": "B1 VH with H35N, S108G", "VL": "B1 VL"}, "B26": {"name": "CE115HA000 K52bD (antibody, name in Kabat numbering, V domains shown)", "VH": "B1 VH with K54D, S108G", "VL": "B1 VL"}, "B27": {"name": "CE115HA000 H35R (antibody, name in Kabat numbering, V domains shown)", "VH": "B1 VH with H35R, S108G", "VL": "B1 VL"}, "B28": {"name": "CE115HA000 H35D (antibody, name in Kabat numbering, V domains shown)", "VH": "B1 VH with H35D, S108G", "VL": "B1 VL"}, "B29": {"name": "CE115HA000 H35F (antibody, name in Kabat numbering, V domains shown)", "VH": "B1 VH with H35F, S108G", "VL": "B1 VL"}, "B30": {"name": "CE115HA000 H35T (antibody, name in Kabat numbering, V domains shown)", "VH": "B1 VH with H35T, S108G", "VL": "B1 VL"}, "B31": {"name": "CE115HA000 K52S (antibody, name in Kabat numbering, V domains shown)", "VH": "B1 VH with K52S, S108G", "VL": "B1 VL"}, "B32": {"name": "CE115HA000 H35K (antibody, name in Kabat numbering, V domains shown)", "VH": "B1 VH with H35K, S108G", "VL": "B1 VL"}, "B33": {"name": "CE115HA000 K52R (antibody, name in Kabat numbering, V domains shown)", "VH": "B1 VH with K52R, S108G", "VL": "B1 VL"}, "B34": {"name": "CE115HA000 K52bN (antibody, name in Kabat numbering, V domains shown)", "VH": "B1 VH with K54N, S108G", "VL": "B1 VL"}, "B35": {"name": "CE115HA000 K52I (antibody, name in Kabat numbering, V domains shown)", "VH": "B1 VH with K52I, S108G", "VL": "B1 VL"}, "B36": {"name": "CE115HA000 I51D (antibody, name in Kabat numbering, V domains shown)", "VH": "B1 VH with I51D, S108G", "VL": "B1 VL"}, "B37": {"name": "CE115HA000 H35Q (antibody, name in Kabat numbering, V domains shown)", "VH": "B1 VH with H35Q, S108G", "VL": "B1 VL"}, "B38": {"name": "CE115HA000 H35Y (antibody, name in Kabat numbering, V domains shown)", "VH": "B1 VH with H35Y, S108G", "VL": "B1 VL"}, "B39": {"name": "CE115HA000 H35M (antibody, name in Kabat numbering, V domains shown)", "VH": "B1 VH with H35M, S108G", "VL": "B1 VL"}, "B40": {"name": "CE115HA000 K52bA (antibody, name in Kabat numbering, V domains shown)", "VH": "B1 VH with K54A, S108G", "VL": "B1 VL"}, "B41": {"name": "CE115HA000 H96K (antibody, name in Kabat numbering, V domains shown)", "VH": "B1 VH with H102K, S108G", "VL": "B1 VL"}, "B42": {"name": "CE115HA000 H35L (antibody, name in Kabat numbering, V domains shown)", "VH": "B1 VH with H35L, S108G", "VL": "B1 VL"}, "B43": {"name": "CE115HA000 K52W (antibody, name in Kabat numbering, V domains shown)", "VH": "B1 VH with K52W, S108G", "VL": "B1 VL"}}, "note": "Numbering of substitutions follows the chain as printed. Numbers in names are those of the source.", "data": [{"molecular_target": "T1, CD3ε homodimer protein (human, UniProt P07766 23-126, limits assumed, sulfo-tag or biotin label in some ECL assays)", "T1 construct": "also called human CD3ε homodimer protein; CD3 (CD3ε)", "T1 sequence (P07766 23-126 limits assumed)": "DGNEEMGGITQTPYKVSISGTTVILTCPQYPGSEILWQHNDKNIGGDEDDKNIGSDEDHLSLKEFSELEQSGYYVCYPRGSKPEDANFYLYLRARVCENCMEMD", "test": "SPR, CD3ε homodimer on chip;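 further: biacore SPR with antibody variants flowed as analyte over amine-coupled CD3ε homodimer on a CM chip, bound amount of each single-residue H chain variant over that of parent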", "values": [{"binder": "B1", "ratio of amounts bound vs CE115HA000": 0.52}, {"binder": "B2", "ratio of amounts bound vs CE115HA000": 0.34}, {"binder": "B3", "ratio of amounts bound vs CE115HA000": 0.26}, {"binder": "B4", "ratio of amounts bound vs CE115HA000": 0.9}, {"binder": "B5", "ratio of amounts bound vs CE115HA000": 0.55}, {"binder": "B6", "ratio of amounts bound vs CE115HA000": 0.22}, {"binder": "B7", "ratio of amounts bound vs CE115HA000": 0.68}, {"binder": "B8", "ratio of amounts bound vs CE115HA000": 0.22}, {"binder": "B9", "ratio of amounts bound vs CE115HA000": 0.12}, {"binder": "B10", "ratio of amounts bound vs CE115HA000": 0.6}, {"binder": "B11", "ratio of amounts bound vs CE115HA000": 0.22}, {"binder": "B12", "ratio of amounts bound vs CE115HA000": 0.23}, {"binder": "B13", "ratio of amounts bound vs CE115HA000": 0.99}, {"binder": "B14", "ratio of amounts bound vs CE115HA000": 1.11}, {"binder": "B15", "ratio of amounts bound vs CE115HA000": 0.17}, {"binder": "B16", "ratio of amounts bound vs CE115HA000": 0.74}, {"binder": "B17", "ratio of amounts bound vs CE115HA000": 0.12}, {"binder": "B18", "ratio of amounts bound vs CE115HA000": 0.23}, {"binder": "B19", "ratio of amounts bound vs CE115HA000": 0.25}, {"binder": "B20", "ratio of amounts bound vs CE115HA000": 0.61}, {"binder": "B21", "ratio of amounts bound vs CE115HA000": 0.18}, {"binder": "B22", "ratio of amounts bound vs CE115HA000": 0.17}, {"binder": "B23", "ratio of amounts bound vs CE115HA000": 0.22}, {"binder": "B24", "ratio of amounts bound vs CE115HA000": 0.42}, {"binder": "B25", "ratio of amounts bound vs CE115HA000": 0.35}, {"binder": "B26", "ratio of amounts bound vs CE115HA000": 0.27}, {"binder": "B27", "ratio of amounts bound vs CE115HA000": 0.14}, {"binder": "B28", "ratio of amounts bound vs CE115HA000": 0.2}, {"binder": "B29", "ratio of amounts bound vs CE115HA000": 0.21}, {"binder": "B30", "ratio of amounts bound vs CE115HA000": 0.26}, {"binder": "B31", "ratio of amounts bound vs CE115HA000": 0.28}, {"binder": "B32", "ratio of amounts bound vs CE115HA000": 0.15}, {"binder": "B33", "ratio of amounts bound vs CE115HA000": 0.92}, {"binder": "B34", "ratio of amounts bound vs CE115HA000": 0.27}, {"binder": "B35", "ratio of amounts bound vs CE115HA000": 0.33}, {"binder": "B36", "ratio of amounts bound vs CE115HA000": 0.29}, {"binder": "B37", "ratio of amounts bound vs CE115HA000": 0.13}, {"binder": "B38", "ratio of amounts bound vs CE115HA000": 0.16}, {"binder": "B39", "ratio of amounts bound vs CE115HA000": 0.29}, {"binder": "B40", "ratio of amounts bound vs CE115HA000": 0.67}, {"binder": "B41", "ratio of amounts bound vs CE115HA000": 0.35}, {"binder": "B42", "ratio of amounts bound vs CE115HA000": 0.11}, {"binder": "B43", "ratio of amounts bound vs CE115HA000": 0.22}]}]}
